Results: patent US12338268B2, “Compositions and methods for treating protein aggregation-associated diseases” (The Board of Trustees of the Leland Stanford Junior …, priority 2019, dated 2025)
Residue numbers refer to the chain shown, from its start.

Tests used:
[1] = biological target: T1, mutant Huntingtin exon 1 (mHttQ51) (Homo sapiens, UniProt P42858, INS38QQQQQQQQQQQQQQQQQQQQQQQQQQQQQQQ); test: In vitro filter trap aggregation assay of mutant Huntingtin exon 1; assay type: biochemical; conditions: for mHttQ51 aggregation: 5× molar excess, 3 μM mHttQ51, filter trap, SDS-insoluble aggregates
T1 construct: mutant Huntingtin exon 1 containing a pathogenic stretch of 51 glutamines (mHttQ51); GST (N, cleaved yes); made in house; host or cells: E. coli Rosetta 2(DE3) pLysS
T1 sequence (P42858 with tags, fused parts or gaps with the stated changes limits assumed): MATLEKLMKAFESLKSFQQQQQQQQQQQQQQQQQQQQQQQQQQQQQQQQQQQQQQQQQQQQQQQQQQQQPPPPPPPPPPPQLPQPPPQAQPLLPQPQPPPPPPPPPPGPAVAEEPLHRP
Method: (§1) Mutant Huntingtin and PolyQ51 aggregation reactions were performed at concentration 3 μM of mHttQ51, 0.044 Units/μl acTEV protease (Invitrogen, Carlsbad, CA, USA), and respective concentrations of Ovalbumin (Sigma) or purified NAC chaperone variants. Aggregation was conducted in TEV reaction buffer (Invitrogen) and incubated at 30° C. AtxQ78 was buffer exchanged into TEV reaction buffer using 7K MWCO Zeba Spin Desalting Columns (Thermo Fisher) to initiate aggregation. AtxQ78 aggregation reactions were performed at 30 μM of Ataxin-3 in reaction buffer (20 mM sodium phosphate pH 7.5, 25 mM NaCl, 6 mM MgCl2, 2 mM DTT, 5% (v/v) glycerol) and incubated at 37° C. Samples at varied time-points were then taken and combined in a 1:1 ratio with a 4% (w/v) SDS, 100 mM DTT solution, boiled for 5 min at 95° C., and stored at −20° C. Samples were then filtered through a 0.22 μm cellulose acetate membrane (Whatman) and washed with 0.1% (w/v) SDS. Membrane was probed using an S-tag antibody (Abcam) for mHttQ51 and PolyQ51, and with a His-tag antibody (Abcam) for AtxQ78.

[2] = biological target: T2, full-length Ataxin-3 (AtxQ78) (Homo sapiens, UniProt P54252, INS305QQQQQQQQQQQQQQQQQQQQQQQQQQQQQQQQQQQQQQQQQQQQQQQQQQQQQQQQQQQQQQQQ); test: Filter trap aggregation assay of AtxQ78; assay type: biochemical; conditions: equimolar (1×) NAC, 37° C.
T2 construct: full-length Ataxin-3 harboring a stretch of 78 glutamines (AtxQ78); made in house
T2 sequence (P54252 with tags, fused parts or gaps with the stated changes): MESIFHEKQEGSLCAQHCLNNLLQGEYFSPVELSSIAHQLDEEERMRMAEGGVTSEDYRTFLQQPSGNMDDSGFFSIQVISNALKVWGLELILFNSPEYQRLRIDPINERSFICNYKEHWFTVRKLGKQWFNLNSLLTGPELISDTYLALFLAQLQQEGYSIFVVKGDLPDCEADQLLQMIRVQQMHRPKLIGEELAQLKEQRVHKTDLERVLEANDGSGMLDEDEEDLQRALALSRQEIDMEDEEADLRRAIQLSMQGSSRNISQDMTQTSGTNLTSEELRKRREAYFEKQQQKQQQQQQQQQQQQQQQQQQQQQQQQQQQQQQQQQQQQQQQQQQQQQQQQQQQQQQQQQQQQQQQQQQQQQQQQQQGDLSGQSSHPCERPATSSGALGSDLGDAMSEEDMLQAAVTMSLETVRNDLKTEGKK
Method: as §1

PolyQ35::YFP = PolyQ35::YFP aggregation in C. elegans overexpressing NAC (fluorescence microscopy, SDD-AGE); assay type: in vivo; conditions: overexpressed in body wall muscle cells (myo-3 promoter), day 3 of adulthood, fluorescence microscopy
From the text: NAC is a major ribosome-binding factor interacting broadly with nascent chains (del Alamo et al., 2011). However, its assumed chaperone function is poorly investigated. […] Although loss of NAC causes pleiotropic defects in C. elegans (Gamerdinger et al., 2015), this finding raises the possibility that NAC directly exerts a chaperone function on aggregation-prone proteins. In this case, overexpression of NAC should prevent aggregation of PolyQ proteins in vivo. Therefore, we used a C. elegans strain expressing 35 consecutive glutamine residues fused to YFP (PolyQ35::YFP) in body wall muscle cells. This PolyQ length is close to the aggregation threshold in C. elegans muscle cells, leading to progressive, age-dependent aggregation starting at day 2 of adulthood (Morley et al., 2002). We generated transgenic animals that overexpress FLAG-tagged α- and βNAC under the control of the muscle-specific myo-3 promoter. PolyQ aggregation was assessed at day 3 of adulthood by fluorescence microscopy as well as semi-denaturing detergent agarose gel electrophoresis (SDD-AGE), which detects high molecular weight oligomeric PolyQ species (Halfmann and Lindquist, 2008). […] This is evident by magnification of the head regions showing diffuse PolyQ35::YFP and less punctate PolyQ35::YFP structures when NAC was overexpressed (FIG. 1A, head region images). […] To directly test the potential chaperone function of NAC, we employed a peptide composed of 51 consecutive glutamines (PolyQ51) as a model substrate in a well-established in vitro aggregation assay. We initiated aggregation of PolyQ51 by cleaving a solubilizing GST tag with TEV protease and detected aggregates over time using a filter trap assay.
Worms were cultured according to standard techniques with E. coli OP50 as food source (Brenner, 1974). Transgenic strains were generated using standard microinjection protocols (Mello and Fire, 1995). […]

Aβ40 = biological target: T3, Aβ40 (Homo sapiens, UniProt P05067); test: Thioflavin T fluorescence assay of Aβ40 aggregation; assay type: biochemical; conditions: equimolar NAC variant and Aβ40 (32 μM FIG. 4C; 18 μM FIG. 12C), 37° C., 20 h
T3 construct: Aβ40 peptide was expressed and purified as described previously; made in house; host or cells: E. coli BL21 (DE3)
Method: Lyophilized Aβ40 was resuspended at 320 μM in 20 mM sodium phosphate pH 7.4, 0.2 mM EDTA, 0.01% (w/v) sodium azide and stored on ice. The NAC proteins were diluted to 100 μM in storage buffer (20 mM sodium phosphate pH 7.5, 25 mM NaCl, 6 mM MgCl2, 2 mM β-mercaptoethanol, 5% (v/v) glycerol) and buffer exchanged into 20 mM sodium phosphate pH 7.4, 0.2 mM EDTA, 0.01% (w/v) sodium azide, 1× complete mini protease inhibitor, EDTA free (Roche) by means of ZebaSpin 7 kDa MWCO spin columns (Thermo Scientific). Samples were prepared that contained equimolar concentrations of Aβ40 and NAC variants. Thioflavin T was added to a final concentration of 10 μM. The samples were transferred to a 96 well half-area clear bottom microplate (Corning GmbH, Wiesbaden, Germany), with 95 μL of sample in each well. The fluorescence (excitation: 440 nm, emission: 480 nm) was measured using a BMG Omega plate reader (BMG Labtech) incubating samples at 37° C., quiescently.

[3] = system: PolyQ35::YFP C. elegans worms; test: Paralysis assay; assay type: in vivo; conditions: overexpression; day 6 to 10 of adulthood
Method: To analyze the percentage of paralyzed worms, 100 semi-synchronized (timed egg lay for 5 h) young adult worms of each strain were placed on a plate containing 150 μM 5-fluorodeoxyuridine. Screening of paralyzed worms was started at day 6 of adulthood.

B1: ovalbumin: molar equivalent ovalbumin control protein (Sigma) (protein, UniProt P01012 2-386, looked up)
Ovalbumin: GSIGAASMEFCFDVFKELKVHHANENIFYCPIAIMSALAMVYLGAKDSTRTQINKVVRFDKLPGFGDSIEAQCGTSVNVHSSLRDILNQITKPNDVYSFSLASRLYAEERYPILPEYLQCVKELYRGGLEPINFQTAADQARELINSWVESQTNGIIRNVLQPSSVDSQTAMVLVNAIVFKGLWEKAFKDEDTQAMPFRVTEQESKPVQMMYQIGLFRVASMASEKMKILELPFASGTMSMLVLLPDEVSGLEQLESIINFEKLTEWTSSNVMEERKIKVYLPRMKMEEKYNLTSVLMAMGITDVFSSSANLSGISSAESLKISQAVHAAHAEINEAGREVVGSAEAGVDAASVSEEFRADHPFLFCIKHIATNAVLFFGRCVSP
- mHttQ51 aggregation [1]: little effect

B2: C. elegans NAC: purified recombinant C. elegans nascent polypeptide-associated complex (protein)
chain 1: MTGSTETRQKEVKEPQVDVSDDSDNEAVEQELTEEQRRVAEAAGLGDHIDKQAKQSRSEKKARKLFSKLGLKQVTGVSRVCIRKSKNILFVINKPDVFKSPGSDTYIIFGEAKIEDLTQHAQMSAIENLKPTREAPQLKTVEEDENEDVEEDSTGIEEKDIELVISQANTTRNKAIRALKEADNDIVNAIMSLTM
chain 2: MDSKAIAERIKKLQAQQEHVRIGGKGTPRRKKKVIHKTAAADDKKLQSNLKKLSVTNIPGIEEVNMIKDDGTVIHFNNPKVQTSVPANTFSVTGSADNKQITEMLPGILNQLGPESLTHLKKLANNVTKLGPDGKGEDEDVPELVGDFDAASKNETKADEQ
- mHttQ51 aggregation [1]: to a lesser extent
- AtxQ78 aggregation [2]: prevented AtxQ78 aggregation but was slightly less effective than the human isoform

B3: RRK/AAA-NAC: NAC with mutation in the conserved ribosome-binding motif in the N-terminus of βNAC; ribosome-binding deficient (protein)
chain 1: B2 chain 1
chain 2: B2 chain 2 with R29A, R30A, K31A
- PolyQ35::YFP aggregation (PolyQ35::YFP): suppressed PolyQ35::YFP aggregation similarly to WT-NAC
- mHttQ51 aggregation [1]: delayed mHttQ51 aggregation similar to wild-type NAC
- Aβ40 aggregation (ThT fluorescence) (Aβ40): fully suppressed Aβ40 aggregation
- motility / age-associated paralysis of PolyQ35::YFP-expressing worms [3]: still improved motility during aging albeit less effective than WT-NAC

B4: ApiCCT1: the 140 amino acid apical domain of CCT1 (protein)
chain: MVPGYALNCTVASQAMPKRIAGGNVKIACLDLNLQKARMAMGVQINIDDPEQLEQIRKREAGIVLERVKKIIDAGAQVVLTTKGIDDLCLKEFVEAKIMGVRRCKKEDLRRIARATGATLVSSMSNLEGEETFESSYLGLCDEVVQAKFSDDECILIKGTSKAAAAALEHHHHHH
- polyQ aggregation of huntingtin exon1 ([1]; system with purified components): specifically and efficiently inhibits polyQ aggregation of huntingtin exon1
